Results on four sequences are retold here after the supplement of paper PMC12455559.

± gives the standard deviation of the averaged measurements.

Series [1] in a line: melting temperature (DSF); higher = more thermostable. Summed up:
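Enzymes made in E. coli C41(DE3) were nickel-bead purified and cut free with SUMO protease before testing. Differential scanning fluorimetry gave each melting temperature. For this, 5 μL 5X Sypro Orange was added to 45 μL enzyme (0 to 0.3 mg/mL) in sealed PCR plates, and a Bio-Rad CFX96 read fluorescence from 25 °C over 250 cycles of 0.3 °C each, ramping at 0.3 °C/s.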

The nature of series [2]: purified protein yield per well (BCA); higher = higher soluble expression. The procedure, abridged: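 Candidate enzymes were expressed in E. coli C41(DE3) in 2 mL autoinduction cultures with 100 µg/mL kanamycin, at 37 °C for 2 h and then 18 °C for 40 h. Cells were lysed, and protein was bound to Ni-charged magnetic beads and released by SUMO protease cleavage on an OT-2 robot. The read-out is purified protein yield per well, measured with the Pierce Rapid Gold BCA kit. Values below 25 ug (0.1 mg/mL) are below the detection threshold.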

The nature of series [3]: PET hydrolysis, aromatic products released after 48 h (umol product/mg enzyme); higher = more PET depolymerization activity. Summed up: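 Candidate enzymes, made tagless by SUMO cleavage and purified on nickel beads, were added at 5 μg (50 μL) to 3.5 mg of either amorphous PET film or crystalline PET powder in 450 μL buffer. The sealed plates stood unshaken for 48 h at 40 or 60 °C. Activity on PET is the aromatic product found in the supernatant per mg enzyme, read at 260 and 280 nm against buffer blanks.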

The mark [4] stands for this setting: substrate: aFilm, 40 °C, pH 4.5.
Setting [5] is: substrate: aFilm, 40 °C, pH 5.5.
Where [6] appears, read: substrate: aFilm, 40 °C, pH 6.5.
The mark [7] stands for this setting: substrate: aFilm, 40 °C, pH 7.5.
Setting [8] is: substrate: aFilm, 60 °C, pH 4.5.
Where [9] appears, read: substrate: aFilm, 60 °C, pH 5.5.
[10] abbreviates: substrate: aFilm, 60 °C, pH 6.5.
Where [11] appears, read: substrate: aFilm, 60 °C, pH 7.5.
The mark [12] stands for this setting: substrate: cryPow, 40 °C, pH 4.5.
[13] abbreviates: substrate: cryPow, 40 °C, pH 5.5.
[14] abbreviates: substrate: cryPow, 40 °C, pH 6.5.
[15] abbreviates: substrate: cryPow, 40 °C, pH 7.5.
[16] abbreviates: substrate: cryPow, 60 °C, pH 4.5.
[17] abbreviates: substrate: cryPow, 60 °C, pH 5.5.
The mark [18] stands for this setting: substrate: cryPow, 60 °C, pH 6.5.
The mark [19] stands for this setting: substrate: cryPow, 60 °C, pH 7.5.

With “ADNPYQRGPNPTAASIAATTGPFAIASVSVARGNGFGGGVIYYPTDTSQGTFGAIAISPGLNGTWPGIAWLGPRLASQGFVVFGIETNNLNDSPTSRGTQLLAALDYLTQRSSVRTRVDATRLAVAGHSMGGGGALDAALRRPSLQAAIGNAPYLPSGNLSTDRVPTLIYAMQNDTLVPPSRLTTMYNTIPATTERGYIQITGAGHNYIGQPSTNLARTMIPWFKIFIDNDTRFSQFLCPLSNMSGISQYRNSCPLI [ESM159]”, the melting temperature in series [1] stood at 57.4 C. In addition, the “purified protein yield per well” value in series [2] came out at 371 µg. Also, the PET hydrolysis in series [3] (setting [4]) was < 3; in series [3] (setting [5]), < 3; in series [3] (setting [6]) it was < 3; in series [3] (setting [7]) it was 2 ± 2.8; in series [3] (setting [8]) it was < 3; in series [3] (setting [9]), < 3. For the same sequence, the PET hydrolysis in series [3] (setting [10]) was < 3; in series [3] (setting [11]), < 3; in series [3] (setting [12]), < 3; in series [3] (setting [13]), 15.5 ± 6.4; in series [3] (setting [14]) it was 46.5 ± 3.5; in series [3] (setting [15]), 74.5 ± 7.8. Besides, the PET hydrolysis was < 3 in series [3] (setting [16]), < 3 in series [3] (setting [17]), 6.5 ± 2.1 in series [3] (setting [18]) and 13 ± 1.4 in series [3] (setting [19]).
In the case of “ADNPYQRGPNPTLASVAANRGTFATAQTSVPAGNGFGGGVIYYPTDTSQTFGGVAIVPGYSALFANEEAWMGPWLASFGFVVIGIETNSRTDSADARGTQLLAALDYLTQRSSVRDRVDPNRLSVVGHSAGGAGVLSAILRRPTLKAGIGLAPGSPVGDYGLSNDRVPTMFISGQRDTTVTQSYLNGLYTTIPASTPSAWVEITGVDHLFATRANTTEMRVLIPWLKIWVDNDTRYTQFLCPLADSSNISMYRNKCPYVPPGGSPSPSASPSSSPSQSPSQSPSQSPSQSPSQSPSTSPSPPPPGACVAEYQPQNSWPGGYQALVTVKAGSSAINGWTVRWTLGSGQTISQAWNGTLSTSGSAVTVKNASYNGSLPAGGSTSFGFLATGTPSTPTLTCTSP [ESM013]”, the melting temperature in series [1] turned out to be 59.8 C. For the same sequence, in series [2], the “purified protein yield per well” value came out at 431 µg. The PET hydrolysis in series [3] (setting [4]), in series [3] (setting [5]), in series [3] (setting [6]), in series [3] (setting [7]), in series [3] (setting [8]) and in series [3] (setting [9]) was < 3 in each case. The PET hydrolysis in series [3] (setting [10]), in series [3] (setting [11]), in series [3] (setting [12]), in series [3] (setting [13]), in series [3] (setting [14]) and in series [3] (setting [15]) was < 3 each time. Moreover, the PET hydrolysis in series [3] (setting [16]), in series [3] (setting [17]), in series [3] (setting [18]) and in series [3] (setting [19]) was < 3 in each case.
Sequence “ADNPYQRGPNPTLASVAATRGTFATAQINVPGGNGFGSGVIYYPTDTSQGTFGGVAIVPGYSALFANEEAWMGPWLASFGFVVIGIETNSRTDSADARGTQLLAALDYLTQRSSVRDRVDPSRLSVVGHSAGGAGVLSAVIRRPSLKAAVGLAPGSPVGNYELSADKVPLMFISGQKDTTVTQSYLNGLYTTIPASTPSAWVEITGVDHLFATRANTTEMRVLIPWLKIFLDNDTRYTQFLCPLADSSGISMYRNKCPYVPPGGSSPSPSATPSPSVSPSASPSASPSASPSVSPSASPSVSPSASPSASPSSQPSGACTASYKTVNSWPGGYQGEVTVTAGSAAINGWTVRWTLGSGQSVSQVWNGTLTTSGSTVTVKNVSYNGSLPAAGSATFGFLANGTASTPAVTCTSP [ESM004]” displayed a melting temperature in series [1] of 55.9 C. Besides, in series [2], the “purified protein yield per well” value turned out to be 375 µg. For the same sequence, the PET hydrolysis in series [3] (setting [4]), in series [3] (setting [5]), in series [3] (setting [6]), in series [3] (setting [7]), in series [3] (setting [8]) and in series [3] (setting [9]) was < 3 each time. The PET hydrolysis in series [3] (setting [10]), in series [3] (setting [11]), in series [3] (setting [12]), in series [3] (setting [13]), in series [3] (setting [14]) and in series [3] (setting [15]) was < 3 each time. Besides, the PET hydrolysis in series [3] (setting [16]), in series [3] (setting [17]), in series [3] (setting [18]) and in series [3] (setting [19]) was < 3 each time.
For the sequence “ADNPYQRGPNPTQASIAANRGTFATAETSVGGGNGFGGAKIYYPTDTSQGTFGAIAVSPGYTATWAAEGAWMGHWLASFGFVVIGIDTINRNDREYARGTQLLAALDYLTQRSSVRTRVDPNRLAVMGHSMGGGGTISAALRRPTLKAAIGLAPYYPSQSTSGMQVPTMLLAGQNDGTSTPASIVTFYNDIPASTEKVYLELTGAGHGFPTSNNSVVTRKVIPWMKIFIDQDTRYTQFLCPLQDLTGIRTYRNSCPLLPNDPGTTFSLAGSASGKCADVPGRVQTNGTGLIIWTCNNAGNQQWTQTPAGELRIYGNTKCMDANASGQGARVTINTCNGGNSQKWTVNTNGTVTNAASGRCLDAGGTADNSPVVVNTCNAASGQTWTKRP [DP047]”, the melting temperature in series [1] is 49.9 C. Moreover, in series [2], the “purified protein yield per well” value came to 311 µg. The PET hydrolysis is < 3 in series [3] (setting [5]); < 3 in series [3] (setting [6]); < 3 in series [3] (setting [7]); < 3 in series [3] (substrate: aFilm, 40 °C, pH 8.5); < 3 in series [3] (setting [9]); < 3 in series [3] (setting [10]). Also, the PET hydrolysis in series [3] (setting [11]) was < 3; in series [3] (substrate: aFilm, 60 °C, pH 8.5), < 3; in series [3] (setting [13]), < 3; in series [3] (setting [14]) it was < 3; in series [3] (setting [15]), < 3; in series [3] (substrate: cryPow, 40 °C, pH 8.5), < 3. Besides, the PET hydrolysis was < 3 in series [3] (setting [17]); < 3 in series [3] (setting [18]); < 3 in series [3] (setting [19]); < 3 in series [3] (substrate: cryPow, 60 °C, pH 8.5).
